Our source for the Kd values is paper PMC11931385, “Structural and functional analysis of cancer-associated missense variants in the retinoblastoma protein pocket domain” (The Journal of Biological Chemistry, 2025).

Residue numbers refer to the chain shown, from its start. In names and notes the source's numbering stands. No end group written: not given here. TMR = tetramethyl rhodamine dye

Holding throughout (assay): fluorescence polarisation; 37 °C, after the 25 °C reading ramped over 7 min to 37 °C and 2 min incubation; unlabeled Rb^P against 1.5 nM TMR-E2F1^TD or 7.5 nM TMR-E7^LxCxE; 25 mM Tris pH 8.0, 200 mM NaCl, 1 mM DTT, 0.1% Tween-20; apparent Kd
Holding throughout (conditions): both partners purified
Background: Polarisation of emitted light reports the rotation of a fluorescent probe.

The target in assay [1] is T1, Rb^P E675Q (human, UniProt P06400 380-788, E675Q).
T1 construct: also called variant 56
T1 sequence (looked up): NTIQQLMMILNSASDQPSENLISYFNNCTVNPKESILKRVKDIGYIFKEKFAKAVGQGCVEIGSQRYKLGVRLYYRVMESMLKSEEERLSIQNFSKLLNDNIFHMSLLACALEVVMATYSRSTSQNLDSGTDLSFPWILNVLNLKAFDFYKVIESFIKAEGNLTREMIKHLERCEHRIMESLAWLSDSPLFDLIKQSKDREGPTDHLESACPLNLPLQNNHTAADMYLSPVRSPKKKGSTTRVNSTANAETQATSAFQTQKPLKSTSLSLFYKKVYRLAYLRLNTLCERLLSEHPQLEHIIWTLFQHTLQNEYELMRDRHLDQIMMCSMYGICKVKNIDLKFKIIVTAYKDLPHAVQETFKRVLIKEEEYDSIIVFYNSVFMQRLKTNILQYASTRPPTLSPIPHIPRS

Assay [2] concerns the target T2, Rb^P R451S (human, UniProt P06400 380-788, R451S).
T2 construct: also called variant 7
T2 sequence (looked up): T1 sequence (looked up) with R72S, Q296E

For assay [3], the target named is T3, Rb^P R621H (human, UniProt P06400 380-788, R621H).
T3 construct: also called variant 42
T3 sequence (looked up): T1 sequence (looked up) with R242H, Q296E

The target of assay [4] is T4, Rb^P T638S (human, UniProt P06400 380-788, T638S).
T4 construct: also called variant 45
T4 sequence (looked up): T1 sequence (looked up) with T259S, Q296E

Assay [5] has as its target T5, Rb^P E533K (human, UniProt P06400 380-788, E533K).
T5 construct: also called variant 22
T5 sequence (looked up): T1 sequence (looked up) with E154K, Q296E

B1: TMR-E2F1^TD, peptide of the E2F1 transactivation domain (peptide)
peptide: {TMR}-GEGIRDLFDCDFGDLTPLD
notes: also called E2F^TD; source: synthetic peptide, bought: GenScript
B1: the Kd in assay [1] turned out to be 71 nM; in assay [2], 44 nM; in assay [3], 48 nM; in assay [4], 38 nM; in assay [5], 1800 nM.

B2: TMR-E7^LxCxE, LxCxE peptide of the E7 oncoprotein from HPV (peptide)
peptide: DLYCYEQLN
modifications: also: TMR label, position not given here
notes: source: synthetic peptide, bought: GenScript
Regarding B2, the Kd in assay [1] turned out to be 46 nM; in assay [2], 17 nM; in assay [3] it was 18 nM; in assay [4], 14 nM; in assay [5], 14 nM.
